Data taken from patent publication US12187807B2, “Antibody molecules to C5AR1 and uses thereof” (Visterra, Inc., priority 2020, dated 2025).

T1: C5aR1 mutants (N-terminus, ECL1, ECL2, ECL3) (Homo sapiens, UniProt P21730, D10A/K279N)
T1 sequence (P21730 with tags, fused parts or gaps D10A/K279N): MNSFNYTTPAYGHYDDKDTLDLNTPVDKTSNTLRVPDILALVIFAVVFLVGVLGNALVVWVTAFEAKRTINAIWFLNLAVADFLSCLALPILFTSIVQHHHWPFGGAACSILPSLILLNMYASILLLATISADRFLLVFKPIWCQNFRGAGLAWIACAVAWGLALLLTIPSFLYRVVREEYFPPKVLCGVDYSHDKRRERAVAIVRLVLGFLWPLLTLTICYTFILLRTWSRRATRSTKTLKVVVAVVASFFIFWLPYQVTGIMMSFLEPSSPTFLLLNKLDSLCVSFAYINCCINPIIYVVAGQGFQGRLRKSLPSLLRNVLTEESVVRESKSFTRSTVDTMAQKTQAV

T2: C5aR1 (human neutrophils) (Homo sapiens, UniProt P21730)
T2 construct: neutrophils isolated from whole blood; host or cells: human neutrophils (cryopreserved, or isolated from whole blood)
T2 sequence (P21730 1-350): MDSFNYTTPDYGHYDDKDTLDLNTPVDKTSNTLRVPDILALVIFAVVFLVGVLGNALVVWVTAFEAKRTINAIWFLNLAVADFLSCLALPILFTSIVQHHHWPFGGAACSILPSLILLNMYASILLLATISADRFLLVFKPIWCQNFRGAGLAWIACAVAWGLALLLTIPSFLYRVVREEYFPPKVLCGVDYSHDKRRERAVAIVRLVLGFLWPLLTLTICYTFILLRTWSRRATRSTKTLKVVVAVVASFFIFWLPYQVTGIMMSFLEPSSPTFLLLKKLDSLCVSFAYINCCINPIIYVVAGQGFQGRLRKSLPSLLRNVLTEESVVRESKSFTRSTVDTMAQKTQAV


Experiments:
[1] = biological target: T1, C5aR1 mutants (N-terminus, ECL1, ECL2, ECL3); experiment: Alanine scanning / mutagenesis epitope mapping of C5aR1; format: binding; conditions: D10A
Outline: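 C5aR1 variants carried single alanine substitutions or introduced N-glycosylation sites across the N-terminus, ECL1, ECL2 and ECL3. Binding of individual monoclonal antibody clones to each mutant was assessed to map core epitopes. Sulfation of tyrosines 11 and 14 was considered for the site I binders.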

[2] = biological target: T2, C5aR1 (human neutrophils); experiment: C5a induced chemotaxis (transwell), human neutrophils; format: cell-based; conditions: 1, 10, or 100 nM antagonist, C5a 10^−6 to 10^−9.5 M
Source text: One of the primary mechanisms by which neutrophils migrate to the site of inflammation is by chemotaxis induced by a C5a/C5adesArg gradient is detected by C5aR1 signaling. Anti-C5aR1 antibodies were thus assessed in a chemotaxis assay for their ability to block C5a induced migration of neutrophils. The assay involved cell migration in a double chamber well separated by filters. The cells and inhibitors were applied into the upper chamber and the lower chamber was filled with the chemoattractant, causing the cells to migrate to the lower chamber. The inhibition activity was evaluated by counting the migrated cell numbers. Specifically, a titration of C5a was added to the bottom chamber a 96 transwell plate. Cells expressing human C5aR1 (C5aR1-U937 cells or human neutrophils) were incubated with or without antagonist and then seeded into the top chamber of the transwell plate. The cells were incubated for 2 hours. Cells that migrated to the bottom chamber were quantified using the CyQUANT cell proliferation kit following the manufacturer's protocol. […]
Anti-C5aR1 antibodies were assessed in a chemotaxis assay for their ability to block C5a induced migration of neutrophils. […] The inhibition activity was evaluated by counting the migrated cell numbers. […] Cells that migrated to the bottom chamber were quantified using the CyQUANT cell proliferation kit following the manufacturer's protocol. […]

Molecule | binding to C5aR1 mutant [1] | inhibition of human neutrophil chemotaxis [2]
clone 583: anti-C5aR1 Site I antibody; VH SEQ ID NO: 536, VL SEQ ID NO: 595 (antibody, V domains shown) VH: EVQLVESGGGLVKPGGSLKLSCAASGFTFNAYAMSWVRQTPEKRLEWVASISTGGNTYCPDSVKDRFTVSRDNVRNILYLQMSSLRSEDTAMYYCTRGYQRFSGFAYWGQGTLVTVS VL: DVVMTQTPLSPPVSLGYQASISCRSSQSLVHSNGNTYLNWYLQKPGQSPKLLIYKVSNRLSGVPDRFSGSGSGTDFTLKISRVETEDLGVYFCSQSTHVPYTFGGGTKLEIK | moderately reduce binding | 
clone 329: anti-C5aR1 Site II antibody; VH SEQ ID NO: 492, VL SEQ ID NO: 552 (antibody, V domains shown) VH: QVQLQQSGAELTKPGASVKLSCKASGYTFTNYWMHWVKQRPGQGLEWIGYLNPSSGYTKYNQKFKDKATLTADKSSSTAYMQLNSLTYEDSAVYYCTRSGGDNYGNPYYFDRWGQGTTVTVSS VL: DVVMTQTPLSLTVSLGDQASISCRSSQSLVHSNGNTYLHWYLQKPGQSPKFLIYKVSNRFSGVPDRFSGSGSGTDFRLKISRVEAEDLGVYFCSQSTLVPLTFGAGTKLEIK |  | strongest effects
